Where two headings read alike, the source gives them in different places.

The source of these data is patent publication US20070128190A1 (GLENMARK PHARMACEUTICALS S A, published 2007).

Test [1] deals with T1, GST-human α2 I domain fusion protein (human, UniProt P17301 153-368).
T1 construct: the reverse primer ends at ...SIEGTV; also called GST-α2 I domain; hα2I; not shown: glutathione S-transferase tag encoded by vector pGEX-2TK
T1 sequence: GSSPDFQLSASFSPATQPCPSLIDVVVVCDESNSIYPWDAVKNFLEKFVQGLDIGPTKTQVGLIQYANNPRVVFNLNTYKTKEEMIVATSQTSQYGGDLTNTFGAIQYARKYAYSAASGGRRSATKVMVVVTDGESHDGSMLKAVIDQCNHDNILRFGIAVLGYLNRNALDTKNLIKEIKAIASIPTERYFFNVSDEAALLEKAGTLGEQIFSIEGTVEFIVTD
Description: ELISA, GST fusion protein on immobilized TMC-2206, Kd estimated from EC50. The method, then: (§1) The fusion proteins were then expressed and purified as described above for the human GST-α2 I domain fusion protein. […] Therefore, these and the primate fusion proteins were further purified by size exclusion chromatography on a Sephadex 75 10/30 (GE-Amersham) column (primate) by FPLC on an Akta-Basic FPLC system (GE-Amersham) to yield a monomeric fraction. […] The Kᵢ assays were performed as described above in Example 2. […] Plates were sealed and coating occurred overnight at 4° C. The next morning, the plates were washed twice with TBS solution and then blocked using 200 μL of the blocking solution described above for 1 hour at room temperature with shaking. After blocking, the blocking solution was removed but the wells were not washed. Instead, a serial dilution of GST fusion protein was made, added to the wells and then incubated for 2 hours at room temperature with shaking. The wells were then aspirated and a TBS washing buffer applied for 5 minutes at room temperature. The washing step was repeated twice more before the secondary antibody was applied. The secondary antibody step consisted of Amersham's HRP-conjugated rabbit anti-GST antibody diluted 1:2000 in blocking buffer. […] The reaction within the wells was then read and quantified by spectrophotometric absorption using the Molecular Dynamics plate reader and associated Softmax software, respectively. […]

The target of test [2] is T2, GST-rhesus α2 I domain fusion protein (rhesus monkey, UniProt P17301 153-368 (human entry)).
T2 construct: also called rhesus GST-α2 I; not shown: glutathione S-transferase tag encoded by vector pGEX-2TK
T2 sequence: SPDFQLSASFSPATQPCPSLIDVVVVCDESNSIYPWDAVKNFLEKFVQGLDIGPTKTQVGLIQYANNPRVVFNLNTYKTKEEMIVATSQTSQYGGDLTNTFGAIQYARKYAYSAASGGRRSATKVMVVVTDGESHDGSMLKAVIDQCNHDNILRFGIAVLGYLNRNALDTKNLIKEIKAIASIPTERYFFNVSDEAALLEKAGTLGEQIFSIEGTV
The description is as above. The method, then:
as §1

Test [3] deals with rat α2β1 integrin on rat blood cells (rat, UniProt A0A0G2K470 27-1178; P49134 21-798). Description: cell-based or functional assay.
The target in test [4] is T1, GST-human α2 I domain fusion protein. Description: Eu-TMC-2206 on immobilized GST-α2 I domain at 37 °C, Scatchard.
For test [5], the target named is human α2β1 integrin on human cells (platelets, leukocytes, HT1080) (human, UniProt P17301 30-1181; P05556 21-798). Description: cell-based or functional assay.
The target of another test is T3, BSA (UniProt P02769 25-607).
T3 construct: also called BSA coated control wells
Description: Eu-labelled antibody on BSA-coated control wells.

In test [6] the target is T4, human platelet α2β1 integrin (immobilized on microtiter plates) (human, UniProt P17301 30-1181; P05556 21-798).
T4 construct: plates custom-coated with human platelet α2β1 by GTI Inc; also called immobilized α2β1 integrin; α2β1-coated plates
Description: competition with Eu-TMC-2206 on human platelet α2β1-coated plate.

Test [7] addresses T5, GST (UniProt P08515 1-218 = GST).
T5 construct: also called GST fusion protein (negative control)
Description: ELISA, GST on immobilized TMC-2206. In general terms: In an ELISA, binding on a coated surface is turned into a signal by an enzyme label.

Test [8] concerns the target T4, human platelet α2β1 integrin …. Description: competition with Eu-TMC-2206 on human platelet α2β1-coated plate. The source holds these as a separate data set.
Test [9] deals with human α2 integrin with endogenous hamster β1 on CHO cells (human; hamster). Description: cell-based or functional assay.
In test [10] the target is T5, GST. Description: GST competing Eu-humanized TMC-2206 off α2β1-coated plate.

Chain of human α2β1 integrin on human cells (platelets, leukocytes, HT1080) (P17301 30-1181 E534K limits assumed, chain 1 of 2): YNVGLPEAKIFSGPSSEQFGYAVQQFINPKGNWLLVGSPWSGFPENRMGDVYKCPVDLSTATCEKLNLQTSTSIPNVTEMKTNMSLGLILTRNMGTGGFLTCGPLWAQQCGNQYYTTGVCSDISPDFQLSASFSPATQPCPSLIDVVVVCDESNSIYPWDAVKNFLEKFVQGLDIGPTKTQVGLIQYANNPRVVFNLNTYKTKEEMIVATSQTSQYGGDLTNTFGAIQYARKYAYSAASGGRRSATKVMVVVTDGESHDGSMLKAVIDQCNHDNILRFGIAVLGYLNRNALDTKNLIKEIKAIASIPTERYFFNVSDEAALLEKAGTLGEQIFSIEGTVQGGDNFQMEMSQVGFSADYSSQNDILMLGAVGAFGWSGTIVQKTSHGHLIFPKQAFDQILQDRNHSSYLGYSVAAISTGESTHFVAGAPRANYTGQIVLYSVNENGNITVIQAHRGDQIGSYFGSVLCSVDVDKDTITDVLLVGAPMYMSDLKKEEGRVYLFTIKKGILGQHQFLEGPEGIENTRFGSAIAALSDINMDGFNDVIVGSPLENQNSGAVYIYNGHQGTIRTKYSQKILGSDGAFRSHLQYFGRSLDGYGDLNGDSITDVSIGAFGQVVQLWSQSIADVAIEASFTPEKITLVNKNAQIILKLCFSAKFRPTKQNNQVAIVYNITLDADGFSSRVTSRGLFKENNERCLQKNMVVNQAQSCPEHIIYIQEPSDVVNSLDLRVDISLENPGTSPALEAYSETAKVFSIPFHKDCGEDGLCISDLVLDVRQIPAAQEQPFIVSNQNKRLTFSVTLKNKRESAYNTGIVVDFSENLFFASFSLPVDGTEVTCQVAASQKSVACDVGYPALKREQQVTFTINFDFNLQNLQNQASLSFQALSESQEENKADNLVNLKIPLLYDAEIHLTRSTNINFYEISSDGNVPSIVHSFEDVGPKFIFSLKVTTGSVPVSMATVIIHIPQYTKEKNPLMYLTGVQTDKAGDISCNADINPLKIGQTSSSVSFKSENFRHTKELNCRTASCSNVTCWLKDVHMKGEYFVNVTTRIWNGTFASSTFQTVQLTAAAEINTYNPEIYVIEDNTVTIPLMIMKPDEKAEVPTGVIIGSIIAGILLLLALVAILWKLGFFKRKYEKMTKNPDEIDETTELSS
Chain of human α2β1 integrin on human cells (platelets, leukocytes, HT1080) (P05556 21-798 limits assumed, chain 2 of 2): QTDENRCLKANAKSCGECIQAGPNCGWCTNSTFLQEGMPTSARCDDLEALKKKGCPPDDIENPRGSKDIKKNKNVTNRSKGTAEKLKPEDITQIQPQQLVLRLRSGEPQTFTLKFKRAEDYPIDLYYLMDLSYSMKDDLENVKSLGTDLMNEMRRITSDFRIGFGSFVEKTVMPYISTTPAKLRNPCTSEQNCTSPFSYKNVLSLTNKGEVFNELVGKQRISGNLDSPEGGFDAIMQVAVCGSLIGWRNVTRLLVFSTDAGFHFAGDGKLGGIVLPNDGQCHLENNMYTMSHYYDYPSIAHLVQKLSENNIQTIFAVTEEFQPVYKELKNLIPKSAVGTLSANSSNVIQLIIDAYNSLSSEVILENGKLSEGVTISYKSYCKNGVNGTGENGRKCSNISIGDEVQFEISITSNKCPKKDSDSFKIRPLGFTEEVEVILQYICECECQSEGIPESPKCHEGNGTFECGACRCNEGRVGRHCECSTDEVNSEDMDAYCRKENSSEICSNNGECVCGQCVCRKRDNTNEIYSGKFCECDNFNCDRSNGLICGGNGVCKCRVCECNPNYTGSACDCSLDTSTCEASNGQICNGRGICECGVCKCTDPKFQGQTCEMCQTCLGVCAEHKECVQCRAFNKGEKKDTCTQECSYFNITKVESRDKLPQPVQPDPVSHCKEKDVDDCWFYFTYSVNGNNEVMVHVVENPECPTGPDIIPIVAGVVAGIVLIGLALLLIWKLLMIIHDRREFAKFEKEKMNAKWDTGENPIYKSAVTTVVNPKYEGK
T5 sequence (P08515 whole entry, the tested form may be a part): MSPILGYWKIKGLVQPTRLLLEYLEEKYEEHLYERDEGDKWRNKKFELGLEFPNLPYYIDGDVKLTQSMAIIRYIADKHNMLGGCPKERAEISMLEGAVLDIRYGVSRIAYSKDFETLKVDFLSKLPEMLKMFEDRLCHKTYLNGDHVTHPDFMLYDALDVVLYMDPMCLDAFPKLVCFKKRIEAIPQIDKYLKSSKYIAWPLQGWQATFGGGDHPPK
T4 sequence (P17301 30-1181 E534K limits assumed, chain 1 of 2): as the sequence (P17301 30-1181 E534K limits assumed, chain 1 of 2) above
T4 sequence (P05556 21-798 limits assumed, chain 2 of 2): as the sequence (P05556 21-798 limits assumed, chain 2 of 2) above
Chain of rat α2β1 integrin on rat blood cells (chain, as listed by the source, chain 1 of 2): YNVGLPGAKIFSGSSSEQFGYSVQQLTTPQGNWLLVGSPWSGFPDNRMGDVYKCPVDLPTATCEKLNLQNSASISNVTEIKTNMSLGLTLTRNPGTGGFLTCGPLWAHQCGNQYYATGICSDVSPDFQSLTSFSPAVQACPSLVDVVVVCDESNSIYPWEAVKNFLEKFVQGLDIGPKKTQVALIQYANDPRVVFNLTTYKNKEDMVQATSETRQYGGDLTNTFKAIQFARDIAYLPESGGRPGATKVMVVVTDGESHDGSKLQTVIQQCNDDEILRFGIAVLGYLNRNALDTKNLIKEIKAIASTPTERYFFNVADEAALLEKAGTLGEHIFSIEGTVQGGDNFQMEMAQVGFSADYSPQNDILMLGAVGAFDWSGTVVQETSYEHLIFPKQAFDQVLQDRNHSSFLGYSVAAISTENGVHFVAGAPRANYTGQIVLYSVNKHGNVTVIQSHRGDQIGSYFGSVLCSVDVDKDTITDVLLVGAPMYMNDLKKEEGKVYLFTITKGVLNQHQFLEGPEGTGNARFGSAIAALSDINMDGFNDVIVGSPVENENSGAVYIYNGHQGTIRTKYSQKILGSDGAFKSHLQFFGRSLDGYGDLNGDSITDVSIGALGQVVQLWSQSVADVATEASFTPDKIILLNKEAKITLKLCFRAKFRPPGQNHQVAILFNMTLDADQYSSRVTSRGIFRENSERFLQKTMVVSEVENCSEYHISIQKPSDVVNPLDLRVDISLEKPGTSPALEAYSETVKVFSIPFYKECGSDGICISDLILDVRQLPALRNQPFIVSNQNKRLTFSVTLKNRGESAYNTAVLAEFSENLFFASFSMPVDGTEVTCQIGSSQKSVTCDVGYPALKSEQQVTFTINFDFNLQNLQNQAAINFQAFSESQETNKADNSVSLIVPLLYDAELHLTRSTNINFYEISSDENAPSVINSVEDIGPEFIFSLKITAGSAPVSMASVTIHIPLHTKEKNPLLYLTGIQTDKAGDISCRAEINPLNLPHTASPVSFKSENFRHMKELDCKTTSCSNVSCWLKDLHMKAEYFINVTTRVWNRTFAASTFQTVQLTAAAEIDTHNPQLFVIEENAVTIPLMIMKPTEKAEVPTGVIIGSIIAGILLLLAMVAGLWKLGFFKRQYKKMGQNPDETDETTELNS
Chain of rat α2β1 integrin on rat blood cells (P49134 21-798, chain 2 of 2): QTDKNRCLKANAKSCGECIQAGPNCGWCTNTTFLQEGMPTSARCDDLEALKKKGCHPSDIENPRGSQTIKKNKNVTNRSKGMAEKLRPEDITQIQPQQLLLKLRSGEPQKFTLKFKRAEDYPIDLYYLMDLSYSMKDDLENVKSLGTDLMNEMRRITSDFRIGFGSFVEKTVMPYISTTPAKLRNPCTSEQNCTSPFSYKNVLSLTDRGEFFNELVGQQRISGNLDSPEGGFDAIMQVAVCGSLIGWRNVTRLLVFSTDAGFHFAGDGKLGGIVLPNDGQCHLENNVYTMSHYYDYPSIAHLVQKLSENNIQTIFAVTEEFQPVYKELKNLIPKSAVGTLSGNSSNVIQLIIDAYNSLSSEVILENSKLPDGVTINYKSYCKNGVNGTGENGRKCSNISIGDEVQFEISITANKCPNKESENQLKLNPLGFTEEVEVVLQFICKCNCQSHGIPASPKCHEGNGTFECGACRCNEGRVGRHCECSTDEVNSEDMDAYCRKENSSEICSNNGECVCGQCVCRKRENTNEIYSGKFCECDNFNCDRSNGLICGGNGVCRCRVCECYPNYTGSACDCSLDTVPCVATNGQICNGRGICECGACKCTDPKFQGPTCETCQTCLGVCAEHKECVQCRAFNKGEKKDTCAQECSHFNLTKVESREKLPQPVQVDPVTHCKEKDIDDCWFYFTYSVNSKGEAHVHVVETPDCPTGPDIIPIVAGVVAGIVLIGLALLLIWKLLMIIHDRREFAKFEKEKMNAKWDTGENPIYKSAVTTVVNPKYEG
Chain of human α2 integrin with endogenous hamster β1 on CHO cells (human; hamster) (P17301 30-1181 E534K): as the sequence (P17301 30-1181 E534K limits assumed, chain 1 of 2) above

B1: TMC-2206 (antibody, mouse IgG1, V domains shown)
VH: QVQLKESGPGLVAPSQSLSITCTVSGFSLTNYGIHWVRQPPGKGLEWLGVIWARGFTNYNSALMSRLIITKDNSQSQVFLKMNSLQPDDSATYFCARANDGVYYAMDYWGQGTSVTVSS
VL: QFVLTQSPAFLSASPGEKVTMTCSANSSVNYIHWYQQKSGTSPKKWIYDTSKLASGVPVRFSGSGSGTSYSLTISSMETEDAATYYCQQWTTNPLTFGAGTRVELK
notes: murine IgG1/κ secreted by hybridoma BHA2.1; labelled with Eu-N1-ITC where used as tracer; also called BHA2.1
Consider B1, for which the Kd (usually the free concentration of one partner at which half of the binding sites on the other are occupied at equilibrium, for simple one-to-one binding) in [1] was 0.18 nM. For the same molecule, the Kd in test [2] is 0.04 nM. Also, in test [3], the “EC50, inhibiting binding of rat platelets to rat collagen Type I” value stood at 6.3 nM and the “fold shift, rat compared to human platelets” value was approximately 5 fold. Besides, binding in test [4] was characterised by a dissociation constant (Kd) of 0.2 nM. Moreover, in [5], the “EC50 (nM), human platelet adhesion to human collagen Type I, ADP 0 µM” value turned out to be 1.7 nM; the “EC50 (nM), human platelet adhesion to human collagen Type I, ADP 20 µM” value was determined as 9.5 nM; the “EC50 (nM), human platelet adhesion to human collagen Type II, ADP 0 µM” value is 1.9 nM; the “EC50 (nM), human platelet adhesion to human collagen Type II, ADP 20 µM” value was 27 nM. Besides, in [5], the “EC50 (nM), human platelet adhesion to human collagen Type III, ADP 0 µM” value was 1.6 nM; the “EC50 (nM), human platelet adhesion to human collagen Type III, ADP 20 µM” value turned out to be 11 nM; the “EC50 (nM), human platelet adhesion to human collagen Type IV, ADP 0 µM” value turned out to be 10 nM; the “EC50 (nM), human platelet adhesion to human collagen Type IV, ADP 20 µM” value was more than 1000 nM. In test [5], the “EC50 (nM), human platelet adhesion to human collagen Type VI, ADP 0 µM” value was 2.3 nM and the “EC50 (nM), human platelet adhesion to human collagen Type VI, ADP 20 µM” value was 23 nM. Further, the binding result with BSA is reported as “no binding”. In addition, the inhibitory constant (Ki) (in general, the dissociation constant of the complex between target and ligand, obtained from inhibition or displacement) in [6] stood at 0.22 nM. In the test with GST [7], the binding result is “no binding (tested: ~1 µM)”. In test [8], this molecule had an inhibition constant (Ki) of 0.28 nM. Besides, in test [9], the “EC50 (nM), cell adhesion to collagen assay” value amounted to 1.03 nM.

B2: Humanized TMC-2206 (hIgG4/κ VH12.0/VL10.0Q) (antibody)
heavy: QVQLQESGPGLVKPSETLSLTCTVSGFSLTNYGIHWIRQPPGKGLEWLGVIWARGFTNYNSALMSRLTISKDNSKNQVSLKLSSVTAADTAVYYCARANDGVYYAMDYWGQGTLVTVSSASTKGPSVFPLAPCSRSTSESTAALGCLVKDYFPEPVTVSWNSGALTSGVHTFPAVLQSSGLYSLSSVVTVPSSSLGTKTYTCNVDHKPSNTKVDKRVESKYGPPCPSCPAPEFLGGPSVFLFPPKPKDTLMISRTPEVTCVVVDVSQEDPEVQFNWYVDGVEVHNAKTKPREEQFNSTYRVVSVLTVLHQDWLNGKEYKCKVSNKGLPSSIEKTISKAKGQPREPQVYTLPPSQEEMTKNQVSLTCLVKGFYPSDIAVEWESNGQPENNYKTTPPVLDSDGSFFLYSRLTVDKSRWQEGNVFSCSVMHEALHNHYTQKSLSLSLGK
light: DFVMTQSPAFLSVTPGEKVTITCSAQSSVNYIHWYQQKPDQAPKKLIYDTSKLASGVPSRFSGSGSGTDYTFTISSLEAEDAATYYCQQWTTNPLTFGQGTKVEIKRTVAAPSVFIFPPSDEQLKSGTASVVCLLNNFYPREAKVQWKVDNALQSGNSQESVTEQDSKDSTYSLSSTLTLSKADYEKHKVYACEVTHQGLSSPVTKSFNRGEC
notes: labelled with Eu or Alexa-488 in some assays
Consider B2, for which, in the test with GST [10], the binding result was “no binding (tested: 0.4 µM)”.
